# Reference: US20230357429A1 (JANUX THERAPEUTICS, published 2023)
# Positions count from the first letter of the chain named. Names and notes keep the numbering of the source. Where no end group is shown, it is not given here.
# T1: Cyno TROP2 Full length (cynomolgus monkey, UniProt P09758 31-323 (human entry))
# T1 chain: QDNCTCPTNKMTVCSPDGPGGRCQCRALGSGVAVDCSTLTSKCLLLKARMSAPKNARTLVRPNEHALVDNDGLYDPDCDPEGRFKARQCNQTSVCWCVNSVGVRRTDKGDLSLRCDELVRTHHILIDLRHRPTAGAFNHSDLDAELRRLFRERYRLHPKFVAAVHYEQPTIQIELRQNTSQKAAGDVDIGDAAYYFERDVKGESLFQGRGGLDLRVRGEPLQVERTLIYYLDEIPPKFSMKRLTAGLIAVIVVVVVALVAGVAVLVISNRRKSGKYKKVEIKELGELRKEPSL
# T2: Human TROP2 Full length (human, UniProt P09758 31-323)
# T2 sequence: T1 chain with V32M, N63S, V200I, V262M, S268T
# T3: Human TROP2 ECD (31-274 AA) (human, UniProt P09758 31-274, biotinylated)
# T3 construct: also called biotinylated TROP2; TROP2-biotin
# T3 sequence: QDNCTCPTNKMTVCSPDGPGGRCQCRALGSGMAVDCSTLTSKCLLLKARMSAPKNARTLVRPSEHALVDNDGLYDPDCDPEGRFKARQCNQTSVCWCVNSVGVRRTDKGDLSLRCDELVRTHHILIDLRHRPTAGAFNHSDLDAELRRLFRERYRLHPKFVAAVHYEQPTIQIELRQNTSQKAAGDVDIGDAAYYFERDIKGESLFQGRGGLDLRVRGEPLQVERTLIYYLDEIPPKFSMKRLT
# B1: PC-34 (bispecific antibody)
# light: GGVDFCALYHWPICYQGGGGSGGLSGRSDAGSPLGLAGSGGSDIQLTQSPSSLSASVGDRVSITCKASQDVSIAVAWYQQKPGKAPKLLIYSASYRYTGVPDRFSGSGSGTDFTLTISSLQPEDFAVYYCQQHYITPLTFGAGTKVEIKRTVAAPSVFIFPPSDEQLKSGTASVVCLLNNFYPREAKVQWKVDNALQSGNSQESVTEQDSKDSTYSLSSTLTLSKADYEKHKVYACEVTHQGLSSPVTKSFNRGEC
# heavy: not shown
# notes: Masked polypeptide complex: anti-TROP2 F108A, anti-CD3 H101A; CD3 mask …
# B2: PC-42 (bispecific antibody)
# light: B1 light
# heavy: EVQLVESGGGLVQPGGSLRLSCAASGSTFYTAVMGWVRQAPGKGLEWVAAIRWTALTTSYADSVKGRFTISRDGAKTTLYLQMNSLRPEDTAVYYCAARGTLGLFTTADSYDYWGQGTLVTVSSGGGGSGGGSGGASQCLGPEWEVCPYGGGGSGGGLSGRSDAGSPLGLAGSGGGSEVQLVESGGGLVQPGGSLKLSCAASGFTFNKYAMNWVRQASGKGLEWVGRIRSKYNNYATYYADSVKDRFTISRDDSKNTAYLQMNSLKTEDTAVYYCVRHGNFGNSYISYWAYWGQGTLVTVSSGGGGSGGGGSGGGGSQTVVTQEPSFSVSPGGTVTLTCRSSTGAVTSGNYANWVQQTPGQAPRGLIGGTKFLAPGVPDRFSGSILGNKAALTITGAQADDESDYYCVLWYSNRWVFGGGTKLTVLGGGGSQVQLQQSGSELKKPGASVKVSCKASGYTFTNYGMNWVKQAPGQGLKWMGWINTYTGEPTYTDDFKGRFAFSLDTSVSTAYLQISSLKADDTAVYFCARGGFGSSYWYADVWGQGSLVTVSSASTKGPSVFPLAPSSKSTSGGTAALGCLVKDYFPEPVTVSWNSGALTSGVHTFPAVLQSSGLYSLSSVVTVPSSSLGTQTYICNVNHKPSNTKVDKKVEPKSC
# notes: Masked polypeptide complex: anti-TROP2 F108A, anti-CD3 with P41S, A49G, N87S ; E227D
# B3: PC-39 (bispecific antibody)
# light: B1 light
# heavy: EVQLVESGGGLVQPGGSLRLSCAASGSTFYTAVMGWVRQAPGKGLEWVAAIRWTALTTSYADSVKGRFTISRDGAKTTLYLQMNSLRPEDTAVYYCAARGTLGLFTTADSYDYWGQGTLVTVSSGGGGSGGGSGGYLCGPDGDETLACYGGGGSGGGLSGRSDAGSPLGLAGSGGGSEVQLVESGGGLVQPGGSLKLSCAASGFTFNKYAMNWVRQASGKGLEWVGRIRSKYNNYATYYADSVKDRFTISRDDSKNTAYLQMNSLKTEDTAVYYCVRHGNFGNSYISYWAYWGQGTLVTVSSGGGGSGGGGSGGGGSQTVVTQEPSFSVSPGGTVTLTCRSSTGAVTSGNYANWVQQTPGQAPRGLIGGTKFLAPGVPDRFSGSILGNKAALTITGAQADDESDYYCVLWYSNRWVFGGGTKLTVLGGGGSQVQLQQSGSELKKPGASVKVSCKASGYTFTNYGMNWVKQAPGQGLKWMGWINTYTGEPTYTDDFKGRFAFSLDTSVSTAYLQISSLKADDTAVYFCARGGFGSSYWYADVWGQGSLVTVSSASTKGPSVFPLAPSSKSTSGGTAALGCLVKDYFPEPVTVSWNSGALTSGVHTFPAVLQSSGLYSLSSVVTVPSSSLGTQTYICNVNHKPSNTKVDKKVEPKSC
# notes: Masked polypeptide complex: anti-TROP2 F108A, anti-CD3 with P41S, A49G, N87S ; E227D; CD3 mask YLCGPDGDETLACY
# B4: PC-37 (bispecific antibody)
# light: B1 light
# heavy: not shown
# notes: Masked polypeptide complex: anti-TROP2 F108A, anti-CD3 F240A; CD3 mask …
# B5: PC-44 (bispecific antibody)
# light: B1 light
# heavy: not shown
# notes: Masked polypeptide complex: anti-TROP2 F108A, anti-CD3 N30Q, I109V, G172A, V231A; CD3 mask …
# B6: PC-35 (bispecific antibody)
# light: B1 light
# heavy: not shown
# notes: as for B1
# B7: PC-36 (bispecific antibody)
# light: B1 light
# heavy: not shown
# notes: Masked polypeptide complex: anti-TROP2 F108A, anti-CD3 F104A
# B8: PC-51 (bispecific antibody)
# light: B1 light
# heavy: not shown
# notes: Masked polypeptide complex: anti-TROP2 F108A, anti-CD3 L232A
# B9: PC-38 (bispecific antibody)
# light: B1 light
# heavy: not shown
# notes: as for B4
# B10: PC-46 (bispecific antibody)
# light: B1 light
# heavy: not shown
# notes: Masked polypeptide complex: anti-TROP2 F108A, anti-CD3 N30Q, I109V, G172A, V231A
# B11: PC-50 (bispecific antibody)
# light: B1 light
# heavy: not shown
# notes: Masked polypeptide complex: anti-TROP2 F108A, anti-CD3 H101A
# B12: PC-41 (bispecific antibody)
# light: B1 light
# heavy: B3 heavy with Y136V, L137Y, D141E, G142F, T145S, L146V, A147G, Y149A
# notes: as for B2
# B13: PC-45 (bispecific antibody)
# light: B1 light
# heavy: not shown
# notes: as for B5
# B14: PC-52 (bispecific antibody)
# light: B1 light
# heavy: not shown
# notes: Masked polypeptide complex: anti-TROP2 F108A, anti-CD3 N236A
# B15: PC-43 (bispecific antibody)
# light: B1 light
# heavy: B2 heavy with A136G, Q138A
# notes: as for B2
# Target: T4, CD3 (human, UniProt P07766 23-126, limits assumed, biotinylated)
# T4 construct: also called biotinylated CD3; CD3-biotin
# T4 sequence (P07766 23-126 limits assumed): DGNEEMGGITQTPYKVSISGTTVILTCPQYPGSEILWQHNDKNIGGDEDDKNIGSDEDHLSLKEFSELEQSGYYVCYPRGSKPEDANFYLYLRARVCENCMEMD
# Test: ELISA; biotinylated CD3 on neutravidin plates, PC titrated, HRP secondary
# Protocol: (§1) TROP2 TCEs and masked polypeptide complexes (PCs) were evaluated for their ability to bind TROP2 and CD3 by ELISA. […] The TCE or PC constructs diluted in buffer were then added to the antigen coated plates. Binding was measured using a standard horse radish peroxidase secondary antibody. The concentration of TCE or PC required to achieve 50% maximal signal (EC₅₀) was calculated.
row,EC50 [nM],Binder
1,283,B1
2,60.2,B2
3,136,B3
4,1300,B4
5,77.3,B5
6,30,B6
7,2920,B7
8,410,B8
9,77.6,B9
10,556,B10
11,454,B11
12,230,B12
13,97,B13
14,242,B14
15,60.7,B15

# Target: T1, Cyno TROP2 Full length
# Test: cell-based or functional assay
row,CyTROP2 HEK293 EC50 (pM),Binder
1,16500,B1
2,665,B3
3,> 100000,B4
4,> 100000,B6
5,> 870000,B7
6,79300,B8
7,45600,B10
8,> 100000,B11
9,5130,B12
10,37700,B14
11,1220,B15

# Target: T2, Human TROP2 Full length
# Test: cell-based or functional assay
Binder,H292 Cytotoxicity EC50 (pM),HCT116 Cytotoxicity EC50 (pM)
B1,> 100000,
B2,12200,
B3,13700,> 100000
B4,> 100000,> 100000
B5,51000,
B6,> 100000,> 100000
B7,> 100000,
B8,> 100000,
B9,> 100000,
B10,> 100000,
B11,> 100000,
B12,47000,
B13,> 100000,
B14,98300,
B15,12700,

# Target: T5, TBD-11 (HC R98A)
# T5 construct: Fab; also called HC R98A mutant
# T5 sequence (VH, as listed by the source, chain 1 of 2, one chain of several): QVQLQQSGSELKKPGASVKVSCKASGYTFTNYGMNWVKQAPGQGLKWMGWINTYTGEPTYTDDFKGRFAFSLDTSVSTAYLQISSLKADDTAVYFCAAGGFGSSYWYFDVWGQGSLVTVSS
# Test: competition ELISA, peptide vs Fab binding to captured biotin-TROP2
# Protocol: (§2) ELISA-based competitive inhibition studies were used to test the ability of each peptide to inhibit the TBDs from binding to TROP2. […] Inhibitory peptides were titrated in a dilution series and pre-incubated with a constant concentration of antibody. Inhibitory peptide and antibody mixtures were then incubated on the antigen captured plates. A horseradish peroxidase conjugate secondary antibody was then used to detect the antibody binding to the plate-bound antigen. The ELISA signal was plotted versus log-scale peptide concentration. A dose dependent decrease of signal was indicative of peptides that compete for antibody binding to the cognate antigen. Graphpad Prism software was used to calculate the inhibitory concentrations of peptide required to achieve 50% maximal signal (IC₅₀s).
row,IC50 [nM],Binder
1,620,"VDFCGLYHWPICYQ (cysteine pairing not given here; also: biotinylated, site not given here) [Peptide-8]"

# Target: T6, TBD-17 (HC S104A)
# T6 construct: Fab; also called HC S104A mutant
# T6 sequence (VH, as listed by the source, chain 1 of 2, one chain of several): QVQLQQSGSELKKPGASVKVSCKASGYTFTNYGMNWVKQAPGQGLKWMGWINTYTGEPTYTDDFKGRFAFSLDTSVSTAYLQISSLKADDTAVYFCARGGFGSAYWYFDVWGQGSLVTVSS
# Test: as above
# Protocol: as §2
row,IC50 [nM],Binder
1,870,"VDFCGLYHWPICYQ (cysteine pairing not given here; also: biotinylated, site not given here) [Peptide-8]"

# Target: T7, TBD-21 (HC F108A)
# T7 construct: Fab; also called HC F108A mutant
# Test: as above
# Protocol: as §2
row,IC50 [nM],Binder
1,1010,"VDFCGLYHWPICYQ (cysteine pairing not given here; also: biotinylated, site not given here) [Peptide-8]"

# Target: T8, TBD-22 (HC D109A)
# T8 construct: Fab; also called HC D109A mutant
# T8 sequence (VH, as listed by the source, chain 1 of 2, one chain of several): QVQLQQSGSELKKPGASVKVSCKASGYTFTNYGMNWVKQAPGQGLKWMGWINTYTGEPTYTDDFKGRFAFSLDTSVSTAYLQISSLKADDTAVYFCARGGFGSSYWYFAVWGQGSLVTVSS
# Test: as above
# Protocol: as §2
row,IC50 [nM],Binder
1,80,"VDFCGLYHWPICYQ (cysteine pairing not given here; also: biotinylated, site not given here) [Peptide-8]"

# Target: T3, Human TROP2 ECD (31-274 AA)
# Test: ELISA; biotinylated TROP2 on neutravidin plates, PC titrated, HRP secondary
# Protocol: as §1
row,EC50 [nM],Binder
1,828,B1
2,630,B2
3,1090,B3
4,1510,B4
5,1140,B5
6,2080,B6
7,1470,B7
8,1160,B8
9,3020,B9
10,2550,B10
11,1220,B11
12,1380,B12
13,4010,B13
14,1210,B14
15,587,B15

# Target: T5, TBD-11 (HC R98A)
# Test: competition ELISA, peptide vs Fab binding to captured biotin-TROP2
# Remark: another data set of the same source
# Protocol: as §2
row,IC50 [nM],Binder
1,300,"VDFCGLYHWPICYQ (cysteine pairing not given here; also: biotinylated, site not given here) [Peptide-8]"

# Target: T6, TBD-17 (HC S104A)
# Test: as above
# Remark: another data set of the same source
# Protocol: as §2
row,IC50 [nM],Binder
1,890,"VDFCGLYHWPICYQ (cysteine pairing not given here; also: biotinylated, site not given here) [Peptide-8]"

# Target: T7, TBD-21 (HC F108A)
# Test: as above
# Remark: another data set of the same source
# Protocol: as §2
row,IC50 [nM],Binder
1,610,"VDFCGLYHWPICYQ (cysteine pairing not given here; also: biotinylated, site not given here) [Peptide-8]"

# Target: T8, TBD-22 (HC D109A)
# Test: as above
# Remark: another data set of the same source
# Protocol: as §2
row,IC50 [nM],Binder
1,20,"VDFCGLYHWPICYQ (cysteine pairing not given here; also: biotinylated, site not given here) [Peptide-8]"
